# Data published in patent publication US20180017576A1 (WESTFAELISCHE WILHELMS UNIVERSITAET MUENSTER, published 2018).
# Residue numbers refer to the chain shown, from its start. Names and notes keep the numbering of the source.
# T1: recombinant human S100A9 protein, wild type (human, UniProt P06702 2-114)
# T1 construct: also called recS100A9; S100A9 wt
# T1 sequence: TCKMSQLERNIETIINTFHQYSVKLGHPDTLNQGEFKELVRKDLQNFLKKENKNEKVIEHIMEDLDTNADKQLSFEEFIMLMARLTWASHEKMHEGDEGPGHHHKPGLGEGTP
# B1: recombinant human S100A8 protein (other)
# chain: LTELEKALNSIIDVYHKYSLIKGNFHAVYRDDLKKLLETECPQYIRKKGADVWFKELDINTDGAVNFQEFLILVIKMGVAAHKKSHEESHKE
# notes: also called recS100A8; MRP8
# B2: recS100A8/S100A9(E78A) heterodimer (other)
# chain 1: B1 chain
# chain 2: T1 sequence with E77A
# notes: Heterodimer of S100A8 and mutated S100A9; also called recS100A8/S100A9(E78A) mutant complex
# B3: recS100A8/S100A9(N69A) heterodimer (other)
# chain 1: B1 chain
# chain 2: T1 sequence with N68A
# notes: Heterodimer of S100A8 and mutated S100A9; also called recS100A8/S100A9(N69A) mutant complex
# B4: recS100A8/S100A9 wt heterodimer (other)
# chain 1: B1 chain
# chain 2: T1 sequence
# notes: Heterodimer of one S100A8 and one S100A9 chain; Two such heterodimers associate to the (S100A8/S100A9)2 tetramer in the presence of calcium; also called recS100A8/S100A9 wild-type complex; wt S100A8/S100A9
# B5: recS100A8/S100A9(N69A+E78A) heterodimer (other)
# chain 1: B1 chain
# chain 2: T1 sequence with N68A, E77A
# notes: Heterodimer of S100A8 and doubly mutated S100A9
# B6: recombinant human S100A9(N69A+E78A) (other)
# chain: T1 sequence with N68A, E77A
# notes: also called double mutant
# B7: recombinant human S100A9(N69A) (other)
# chain: T1 sequence with N68A
# notes: also called N69A mutant
# B8: recombinant human S100A9(E78A) (other)
# chain: T1 sequence with E77A
# notes: also called E78A mutant
# Legend:
# [1] = target: T1, recombinant human S100A9 protein, wild …; assay: MALDI-MS, native solvent conditions, no calcium
# [2] = target: the molecule itself; assay: MALDI-MS, native solvent conditions, with calcium
# Text: FIG. 2: MALDI mass spectra in the absence and presence of calcium under native solvent conditions. (a) MALDI mass spectra of recS100A8/S100A9 wt complexes in the absence (left) and presence (right) of calcium using 2,6-dihydroxy-acetophenone as matrix. The mass spectra between m/z 20,000 and 100,000 together with an inset between m/z 46,000 and 50,000 are shown. T⁺, singly charged; T²⁺, doubly charged; T³⁺, triply charged tetramer. (b) MALDI mass spectra of recS100A8/S100A9(N69A) mutant complexes in the absence (left) and presence (right) of calcium.
# The oligomerization properties of the recS100A8/S100A9 mutant complexes can be determined by MALDI-MS. As shown exemplarily for the N69A mutant in FIG. 2(b), all mutant S100A9 proteins display signals for singly charged heterodimers in the absence of calcium. In contrast to the results obtained with the recS100A8/S100A9 wt proteins no heterotetramers can be observed for the mutant complexes in the presence of calcium (FIG. 2). The base peaks under these conditions exclusively represent S100A8/S100A9(N69A), S100A8/S100A9(E78A) and S100A8/S100A9(N69A+E78A) heterodimers. All MALDI-MS experiments presented here were also confirmed by ESI-MS measurements (see FIG. 3).
# [3] = target: the molecule itself; assay: glycerol density gradient centrifugation, 100 uM Ca2+
# Description: (§1) FIG. 5: Density gradient centrifugation. wt and mutant recS100A8/S100A9 complexes were loaded on a glycerol gradient in the presence of either 1 mM EGTA or 100 μM Ca²⁺. After centrifugation, successive fractions of the gradients were analyzed by SDS-PAGE. […] Addition of calcium induced a marked shift for recS100A8/S100A9 wt to higher glycerol densities, whereas for the mutant complexes recS100A8/S100A9(N69A) and recS100A8/S100A9(E78A) no shift was observed.
# [4] = target: B1; assay: ESI-MS, native solvent conditions
# [5] = target: B1; assay: glycerol density gradient centrifugation, 1 mM EGTA
# Description: as §1
binder,measurement,setting,value
B1,binding result,[1],binds
B2,binding result,[2],no binding
B3,binding result,[2],no binding
B4,binding result,[3],binds
B5,binding result,[2],no binding
B6,binding result,[4],binds
B7,binding result,[5],binds
B8,binding result,[5],binds
